Patent US7572770B2, “Use of an interleukin 1 receptor antagonist and/or pyrrolidinedithiocarbamate for the treatment or prophylaxis of type 2 diabetes” (University of Zurich, priority 2002, dated 2009)

How the values were obtained:
[1] = cited from earlier work
human islets β-cells = assay: Detection of IL-1β expressing β-cells in cultured human islets (double immunostaining); assay type: cell-based; details: 33.3 mM glucose, 4 days, co-incubation with IL-1Ra
Procedure: Islet isolation and culture. Islets were isolated from pancreases of eleven organ donors at the Department of Surgery, University of Geneva Medical Center, as described (32-34). The islet purity was >95%, as judged by dithizone staining (if this degree of purity was not primarily achieved by routine isolation, islets were handpicked). […] For long-term in vitro studies, the islets were cultured on extracellular matrix-coated plates derived from bovine corneal endothelial cells (Novamed Ltd., Jerusalem, Israel), allowing the cells to attach to the dishes and spread, preserving their functional integrity (7;35). Islets were cultured in CMRL 1066 medium containing 100 U/ml penicillin, 100 μg/ml streptomycin and 10% fetal calf serum (Gibco, Gaithersburg, Md.), hereinafter referred to as culture medium. Two days after plating, when most islets were attached and began to flatten, the medium was changed to culture medium containing 5.5, 11.1 or 33.3 mM glucose. In some experiments, islets were additionally cultured with 2 ng/ml recombinant human IL-1β, 1000 U/ml recombinant human IFNγ (ReproTech EC Ltd, London, UK), 500 ng/ml IL-1β receptor antagonist (IL-1Ra) (R&D Systems Inc., Minneapolis, Minn.), 1 ng/ml membrane bound Fas-ligand (FasL) (36) (upstate biotechnology, Lake Placid, N.Y.) or with 100 μM pyrrolidinedithiocarbamate (PDTC; Sigma; 2 h per 2 d of culture). […]

NF-κB = NF-κB activation in human islets; assay type: cell-based; details: 33.3 mM glucose with IL-1Ra 500 ng/ml, 44 hours
Procedure: Western blot analysis. Islets were cultured in a culture medium in non-adherent plastic dishes. One day after isolation, the medium was changed and groups of 200 islets were incubated for 44 hours in culture medium containing 5.5 or 33.3 mM glucose without or with 2 ng/ml IL-1β or 500 ng/ml IL-1Ra. At the end of the incubations, islets were washed in PBS, suspended in 50 μl sample buffer containing 125 mM Tris-HCl, pH 6.8, 4% SDS, 10% glycerol, 0.3% bromphenol blue, 1.8% β-mercaptoethanol and boiled for 5 min. Equivalent amounts of each treatment group were run on 15% SDS polyacrylamide gels. […] Intensity of bands was analyzed using Multianalyst™ (Bio Rad, Laboratories inc., Hercules, Calif.). […] Activation of NF-κB complex was quantified with an ELISA-based Kit, using attached oligonucleotides binding to a NF-κB consensus site and detected by an anti-p65 or p50 subunit antibody, according to the manufacturer's instructions (Trans-AM™ NFκB, Active Motif). […] Sections were incubated with mouse anti-NF-κB (p65) (1:50 dilution) or rabbit anti-IκB (1:50 dilution, C-21, Santa Cruz) antibodies, detected by donkey anti-mouse or anti-rabbit Cy3 conjugated antibodies and double stained for insulin as described above.

type II IL-1R = target: T1, type II IL-1R (Homo sapiens, UniProt P27930); details: read-out: Kd, binding to type II IL-1R; cited from earlier work
T1 sequence (P27930 14-398): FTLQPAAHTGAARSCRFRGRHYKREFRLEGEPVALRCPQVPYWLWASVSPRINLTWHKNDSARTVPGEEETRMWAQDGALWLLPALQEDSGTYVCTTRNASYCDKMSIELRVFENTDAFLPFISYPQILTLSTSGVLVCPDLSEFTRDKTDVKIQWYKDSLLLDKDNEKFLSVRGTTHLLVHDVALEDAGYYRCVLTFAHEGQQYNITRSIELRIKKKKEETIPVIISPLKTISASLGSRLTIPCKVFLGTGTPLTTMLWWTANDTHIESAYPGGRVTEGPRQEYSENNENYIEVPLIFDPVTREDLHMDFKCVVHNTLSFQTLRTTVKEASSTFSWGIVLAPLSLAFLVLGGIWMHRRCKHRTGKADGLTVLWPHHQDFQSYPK

Interleukin 1 receptor antagonist [IL-1Ra]
patients with infections ([1]; human, in vivo): 40%
patients with serious infections ([1]; human, in vivo): 1.8%
patients developing neutropenia (absolute neutrophil count 1×10^9/l or less) ([1]; placebo-controlled trials, rheumatoid arthritis): 0.3%
patients requiring discontinuation of treatment (injection site reactions) ([1]; rheumatoid arthritis patients): up to 5%
most commonly reported adverse effects ([1]; subcutaneous treatment, rheumatoid arthritis patients): Injection site reactions
IL-1β positive β-cells (double immunostaining) (human islets β-cells): displayed similar results
glucose-induced increase in NF-κB activity (NF-κB): prevented
Kd (type II IL-1R): 7 nM
